The results in this text go back to paper PMC11169033.

Substrate in the data set: CN(C)c1ccc(/C=C/c2cc[n+](C)cc2)cc1
The experiment in a line: saturation of fluorescent uptake in hOCT2-HEK293 cells (affinity, control condition). The data set is classed as cell-based, Homo sapiens.

B1: human organic cation transporter 2 (hOCT2) (Homo sapiens) (protein)
chain: MPTTVDDVLEHGGEFHFFQKQMFFLLALLSATFAPIYVGIVFLGFTPDHRCRSPGVAELSLRCGWSPAEELNYTVPGPGPAGEASPRQCRRYEVDWNQSTFDCVDPLASLDTNRSRLPLGPCRDGWVYETPGSSIVTEFNLVCANSWMLDLFQSSVNVGFFIGSMSIGYIADRFGRKLCLLTTVLINAAAGVLMAISPTYTWMLIFRLIQGLVSKAGWLIGYILITEFVGRRYRRTVGIFYQVAYTVGLLVLAGVAYALPHWRWLQFTVSLPNFFFLLYYWCIPESPRWLISQNKNAEAMRIIKHIAKKNGKSLPASLQRLRLEEETGKKLNPSFLDLVRTPQIRKHTMILMYNWFTSSVLYQGLIMHMGLAGDNIYLDFFYSALVEFPAAFMIILTIDRIGRRYPWAASNMVAGAACLASVFIPGDLQWLKIIISCLGRMGITMAYEIVCLVNAELYPTFIRNLGVHICSSMCDIGGIITPFLVYRLTNIWLELPLMVFGVLGLVAGGLVLLLPETKGKALPETIEEAENMQRPRKNKEKMIYLQVQKLDIPLN
notes: hOCT2 stably expressed in HEK293 cells
In the case of B1, the Km came out at 20.5 µM.
